Experimental findings from article PMC6230950 are described below.

For assay [1], the target named is commercial purified human IgG1 (human). The assay is described as follows: SPR; Biacore X100, HBS-EP+; TB-PIGS captured on protein A coupled to a CM5 chip; FcγR as analyte, 40 μL/min; affinity of one FcγR for a single arm. Background: In SPR one partner is held on a chip, and binding of the other changes the refractive index at the surface.
Assay [2] shares this target. The assay is described as follows: SPR; Biacore X100; protein A on a CM5 chip, IgG or TB-PIGS captured; human CD32a as analyte, 4000 nM to 125 nM in 2-fold dilutions; HBS-EP+; 40 uL/min, contact 90 s; steady-state affinity analysis.
Assay [3] addresses commercial purified murine IgG2a (mouse). The assay is described as follows: SPR; Biacore X100; protein A amine-coupled on a CM5 chip, IgG or TB-PIGS captured on it; CD64 (human or mouse) as analyte, 240 nM down to 1.875 nM in 1:2 dilutions; HBS-EP+; 40 uL/min, contact 135 s, dissociation 600 s; 1:1 model, but for human TB-PIGS from wild-type plants the 'Heterogeneous antibody with aglycosylation' model (two sets of values).

A word on the Kd: it is the equilibrium constant for the complex coming apart. Higher therefore signals lower affinity. Turning to “human CD16a (FcγRIIIa) (from UniProt P08637 17-208) (receptor)”, the Kd in assay [1] amounted to 673 nM.
In assay [2], “human CD32a (FcγRIIa) (from UniProt P12318 34-217) (receptor)” had a Kd of 880 nM.
Molecule “human CD64 (FcγRI) (from UniProt P12314 16-292) (receptor)” registered a Kd in assay [1] of 0.27 nM.

B1: mouse CD64 (FcγRI) (receptor)
chain: EVVNATKAVITLQPPWVSIFQKENVTLWCEGPHLPGDSSTQWFINGTAVQISTPSYSIPEASFQDSGEYRCQIGSSMPSDPVQLQIHNDWLLLQASRRVLTEGEPLALRCHGWKNKLVYNVVFYRNGKSFQFSSDSEVAILKTNLSHSGIYHCSGTGRHRYTSAGVSITVKELFTTPVLRASVSSPFPEGSLVTLNCETNLLLQRPGLQLHFSFYVGSKILEYRNTSSEYHIARAEREDAGFYWCEVATEDSSVLKRSPELELQVLGPQSSAP
In general, koff refers to the first-order rate constant of dissociation. As a reminder, the kon is the second-order rate constant of association. Read a high kon as fast association. In assay [3], B1 registered a Kd of 4.8 nM, a koff of 0.0105 s⁻¹ and a kon of 2.18e+06 M⁻¹ s⁻¹.
